{"source": "patent US20230049152A1", "about": "(Genentech, published 2023)", "binders": {"B1": {"name": "rb.Ab4 (antibody, V domains shown)", "VH": "QSVEESGGRLVTPGTPLTLTCTVSGFSLSNYAMIWVRQAPGEGLEWVGTISLGGYTYYANWAKGRFTISKTSTTVDLKISSPTTEDTATYFCARARWSTDSAIYTYAFDPWGPGTLVTVSS", "VL": "AYDMTQTPASVEVAVGGTVTIKCQASQSISSYLSWYQQKPGQRPELLIYKASTLASGVSSRFKGSGSGTQFTLTISDLECADAATYYCQQGYTSSNIDNIFGGGTEVVVK", "notes": "Rabbit variable regions; also called parental rabbit antibody Ab4"}, "B2": {"name": "hu.Ab4.H1L2 (antibody, human IgG1, kappa)", "heavy": "not shown", "light": "DIQMTQSPSSLSASVGDRVTITCQASQSISSYLSWYQQKPGKRPKLLIYKASTLASGVPSRFSGSGSGTDFTLTISSLQPEDFATYYCQQGYTSSNIDNIFGGGTKVEIKRTVAAPSVFIFPPSDEQLKSGTASVVCLLNNFYPREAKVQWKVDNALQSGNSQESVTEQDSKDSTYSLSSTLTLSKADYEKHKVYACEVTHQGLSSPVTKSFNRGEC"}, "B3": {"name": "hu.Ab4.H1L3 (antibody, human IgG1, kappa)", "heavy": "not shown", "light": "B2 light with I2Y, R43A"}, "B4": {"name": "hu.Ab4.H1L4 (antibody, human IgG1, kappa)", "heavy": "not shown", "light": "B2 light with R43A"}, "B5": {"name": "hu.Ab4.H10L1 (antibody, human IgG1, kappa)", "heavy": "not shown", "light": "B2 light with I2Y"}, "B6": {"name": "hu.Ab4.H9L1 (antibody, human IgG1, kappa, V domains shown)", "VH": "EQQLLESGGGLVQPGGSLRLSCAVSGFSLSNYAMIWVRQAPGKGLEWVGTISLGGYTYYANWAKGRFTISKDSSKTTVYLQMNSLRAEDTAVYYCARARWSTDSAIYTYAFDPWGPGTLVTVSS", "VL": "DYQMTQSPSSLSASVGDRVTITCQASQSISSYLSWYQQKPGKRPKLLIYKASTLASGVPSRFSGSGSGTDFTLTISSLQPEDFATYYCQQGYTSSNIDNIFGGGTKVEIKR"}, "B7": {"name": "hu.Ab4.H6L1 (antibody, human IgG1, kappa, V domains shown)", "VH": "B6 VH with S73N, Y94F", "VL": "B6 VL"}, "B8": {"name": "hu.Ab4.H3L1 (antibody, human IgG1, kappa, V domains shown)", "VH": "B6 VH with V24A, Y94F", "VL": "B6 VL"}, "B9": {"name": "hu.Ab4.H11L1 (antibody, human IgG1, kappa, V domains shown)", "VH": "B6 VH with Q2V, V24A, G49S, K71R, S73N, T76N, V78L, P116Q", "VL": "B6 VL"}, "B10": {"name": "hu.Ab4.H8L1 (antibody, human IgG1, kappa, V domains shown)", "VH": "B6 VH with V78L, Y94F", "VL": "B6 VL"}, "B11": {"name": "hu.Ab4.H7L1 (antibody, human IgG1, kappa, V domains shown)", "VH": "B6 VH with T76N, Y94F", "VL": "B6 VL"}, "B12": {"name": "hu.Ab4.H4L1 (antibody, human IgG1, kappa, V domains shown)", "VH": "B6 VH with G49S, Y94F", "VL": "B6 VL"}, "B13": {"name": "hu.Ab4.H5L1 (antibody, human IgG1, kappa, V domains shown)", "VH": "B6 VH with K71R, Y94F", "VL": "B6 VL"}, "B14": {"name": "hu.Ab4.H2L1 (antibody, human IgG1, kappa)", "heavy": "not shown", "light": "B2 light with I2Y"}, "B15": {"name": "hu.Ab5.H2L1 (antibody, human IgG1, kappa)", "heavy": "not shown", "light": "DIQVTQSPSSLSASVGDRVTITCQASENIANALAWYQQKPGKPPKFLIYGASNLASGVPSRFSGSGSGTDFTFTISSLQPEDIATYYCQQAYYGNSFVEGTFGGGTKVEIKRTVAAPSVFIFPPSDEQLKSGTASVVCLLNNFYPREAKVQWKVDNALQSGNSQESVTEQDSKDSTYSLSSTLTLSKADYEKHKVYACEVTHQGLSSPVTKSFNRGEC"}, "B16": {"name": "hu.Ab5.H11L1 (antibody, human IgG1, kappa)", "heavy": "not shown", "light": "B15 light"}, "B17": {"name": "hu.Ab5.H7L1 (antibody, human IgG1, kappa, V domains shown)", "VH": "EQQLLESGGGLVQPGGSLRLSCAVSGIDLSTYAMGWVRQAPGKGLEWIGLIHRSGRTYYATWAKGRFTISKDNSKTTVYLQMNSLRAEDTAVYFCTRSYPDYSATASIWGPGTTVTVSS", "VL": "DIQVTQSPSSLSASVGDRVTITCQASENIANALAWYQQKPGKPPKFLIYGASNLASGVPSRFSGSGSGTDFTFTISSLQPEDIATYYCQQAYYGNSFVEGTFGGGTKVEIKR"}, "B18": {"name": "hu.Ab5.H6L1 (antibody, human IgG1, kappa, V domains shown)", "VH": "B17 VH with K71R, N73S", "VL": "B17 VL"}, "B19": {"name": "hu.Ab5.H3L1 (antibody, human IgG1, kappa, V domains shown)", "VH": "B17 VH with V24A, N73S", "VL": "B17 VL"}, "B20": {"name": "hu.Ab5.H9L1 (antibody, human IgG1, kappa, V domains shown)", "VH": "B17 VH with N73S, V78L", "VL": "B17 VL"}, "B21": {"name": "hu.Ab5.H12L1 (antibody, human IgG1, kappa, V domains shown)", "VH": "B17 VH with Q2V, V24A, I48V, G49S, K71R, T76N, V78L, F94Y, P111Q", "VL": "B17 VL"}, "B22": {"name": "hu.Ab5.H8L1 (antibody, human IgG1, kappa, V domains shown)", "VH": "B17 VH with N73S, T76N", "VL": "B17 VL"}, "B23": {"name": "hu.Ab5.H10L1 (antibody, human IgG1, kappa, V domains shown)", "VH": "B17 VH with N73S, F94Y", "VL": "B17 VL"}, "B24": {"name": "hu.Ab5.H5L1 (antibody, human IgG1, kappa, V domains shown)", "VH": "B17 VH with G49S, N73S", "VL": "B17 VL"}, "B25": {"name": "hu.Ab5.H4L1 (antibody, human IgG1, kappa, V domains shown)", "VH": "B17 VH with I48V, N73S", "VL": "B17 VL"}}, "note": "Positions count from the first letter of the chain named."}
{"target": "T1, human CCR8 (human, UniProt P51685 1-355)", "T1 construct": "the assay field says which; also called hCCR8; huCCR8", "assay": "flow cytometry, CHO-huCCR8.Gna15 cells, relative to rb.Ab4", "description": "(§1) Evaluation of CCR8 binding of the humanized variants with a hIgG1 Fc involved screening by flow cytometry, and comparing the relative EC₅₀ and MFI on human CCR8 CHO cells to the parental rabbit antibodies. Specifically, stable CHO-huCCR8.Gna15 cells were stained with various concentrations (starting from 10 ug/ml or 66.66 nM, 1:4 serial dilution for total 8 concentration points) of Ab4 and Ab5 variants at 4° C. for 30 minutes, then washed twice with FACS buffer (PBS with 0.5% BSA and 0.2 mM EDTA) and followed by staining with AF647-anti-hIgG at 4° C. for 15 min. Cells were washed twice with FACS buffer, and re-suspended in FACS buffer with propidium iodide (0.5 ug/ml) and analyzed with iQue3 (Sartorius).", "units": {"Relative EC50": "ratio", "Relative MFI": "ratio"}}
{"binder": "B1", "Relative EC50": 1, "Relative MFI": 1}
{"binder": "B2", "Relative EC50": 1.06, "Relative MFI": 0.73}
{"binder": "B3", "Relative EC50": 1.23, "Relative MFI": 1}
{"binder": "B4", "Relative EC50": 1.04, "Relative MFI": 0.8}
{"target": "T1, human CCR8", "assay": "flow cytometry, CHO-huCCR8.Gna15 cells, relative to rb.Ab4", "remark": "another data set of the same source", "description": "as §1", "units": {"Relative EC50": "ratio", "Relative MFI": "ratio"}}
{"binder": "B1", "Relative EC50": 1, "Relative MFI": 1}
{"binder": "B5", "Relative EC50": 1.07, "Relative MFI": 0.77}
{"binder": "B6", "Relative EC50": 1.04, "Relative MFI": 0.87}
{"binder": "B7", "Relative EC50": 1.06, "Relative MFI": 0.68}
{"binder": "B8", "Relative EC50": 1, "Relative MFI": 1.02}
{"binder": "B9", "Relative EC50": 0.88, "Relative MFI": 0.66}
{"binder": "B10", "Relative EC50": 1.03, "Relative MFI": 0.72}
{"binder": "B11", "Relative EC50": 1.05, "Relative MFI": 0.44}
{"binder": "B12", "Relative EC50": 0.96, "Relative MFI": 1.06}
{"binder": "B13", "Relative EC50": 1.02, "Relative MFI": 0.9}
{"binder": "B14", "Relative EC50": 0.99, "Relative MFI": 1.07}
{"target": "T1, human CCR8", "assay": "flow cytometry, CHO-huCCR8.Gna15 cells, relative to rb.Ab5", "description": "as §1", "units": {"Relative EC50": "ratio", "Relative MFI": "ratio"}}
{"binder": "B15", "Relative EC50": 1.1, "Relative MFI": 0.93}
{"binder": "B16", "Relative EC50": 1.3, "Relative MFI": 0.87}
{"binder": "B17", "Relative EC50": 2.2, "Relative MFI": 0.96}
{"binder": "B18", "Relative EC50": 2.4, "Relative MFI": 0.97}
{"binder": "B19", "Relative EC50": 1.5, "Relative MFI": 1}
{"binder": "B20", "Relative EC50": 1.3, "Relative MFI": 0.92}
{"binder": "B21", "Relative EC50": 2.3, "Relative MFI": 0.26}
{"binder": "B22", "Relative EC50": 1.4, "Relative MFI": 0.94}
{"binder": "B23", "Relative EC50": 1.2, "Relative MFI": 0.87}
{"binder": "B24", "Relative EC50": 7.6, "Relative MFI": 0.35}
{"binder": "B25", "Relative EC50": 1.5, "Relative MFI": 0.95}
